These results are taken from US20080213273A1.

The target of test [1] is monkey CD20 (on monkey peripheral blood cells) (monkey) (UniProt M4ZHZ6). Put plainly: flow cytometry on monkey peripheral blood, N = 3, mean (SD 3.3); control column 0.2 (0.1). Background: A flow cytometer gives signals particle by particle.
In test [2] the target is human CD20 (on the human B-cell lymphoma cell line WIL2-S and other CD20+ human B-cell lines) (human) (UniProt P11836). Put plainly: cell-based or functional assay.
Chain of UniProt P11836 (P11836 whole entry): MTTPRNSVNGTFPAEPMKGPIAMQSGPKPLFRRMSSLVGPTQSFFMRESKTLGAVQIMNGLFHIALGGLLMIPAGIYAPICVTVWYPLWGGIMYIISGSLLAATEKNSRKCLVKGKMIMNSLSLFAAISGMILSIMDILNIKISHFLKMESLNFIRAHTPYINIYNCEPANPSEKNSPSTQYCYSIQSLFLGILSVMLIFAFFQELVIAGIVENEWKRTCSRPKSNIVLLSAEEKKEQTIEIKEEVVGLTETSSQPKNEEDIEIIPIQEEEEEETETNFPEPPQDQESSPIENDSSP

Chain of UniProt M4ZHZ6 (M4ZHZ6 entry or part of it limits assumed): as the sequence (P11836 whole entry) above, with S25P, F31L, T51A, A157V, K217R, N226S, I227V, T239V counted along it

For the substance rituximab (antibody), the percent positive staining cells in test [1] came out at 21.5%. This substance also showed an apoptosis of Ramos B-cells, annexin V/propidium iodide flow cytometry in test [2] of 60 % cell lysis.
